# Data taken from patent US20240076371A1, “COMPOSITIONS AND METHODS FOR TREATING OSTEOARTHRITIS, RHEUMATOID ARTHRITIS, AND JOINT AND TENDON DISORDERS” (BOARD OF REGENTS, THE UNIVERSITY OF TEXAS SYSTEM, priority 2021, published 2024).
# Assays:
# [1] = test system: post-traumatic OA model (DMM) in male C57BL/6 mice; test: DMM OA model: synovitis score; type: in vivo, mouse; details: vs saline
# Experimental: (§1) Destabilization of the medial meniscus (DMM) surgery was performed on the right knee joint of mice (Glasson S S, et al. Osteoarthritis and cartilage. 2007; 15(9):1061-9). Briefly, a 3 mm longitudinal incision over the distal patella to proximal tibial plateau was made. The joint capsule immediately medial to the patellar tendon was incised with a #15 blade and the joint capsule opened with micro-iris scissors. Blunt dissection of the fat pad over the intercondylar area was then performed to expose the intercondylar region, providing visualization of the meniscotibial ligament of the medial meniscus. Mild hemorrhage from the fat pad upon blunt dissection was controlled by pressure from absorption spears. Sectioning of medial meniscotibial ligament with micro-surgical knife, with the blade directed proximo-laterally, gave destabilization of the medial meniscus (DMM). Sham surgery was performed with the ligament visualized but not transected.
# The degree of synovitis is determined considering synovial membrane thickening and synovial hyperplasia and scored on a scale of 0-3 (0, no synovitis; 1, mild synovitis; 2, moderate synovitis; and 3, severe synovitis) (Krenn V, et al. Pathology, research and practice. 2002; 198(5):317-25; and Huesa C, et al. Annals of the rheumatic diseases. 2016; 75(11):1989-97. Blinded histomorphometric assessment was performed.
# [2] = test system: post-traumatic OA model (DMM) in male C57BL/6 mice; test: DMM OA model: micro-computed tomography of tibia subchondral bone; type: in vivo, mouse; details: eight weeks post-surgery, vs saline-treated DMM mice
# Experimental: as §1
# Micro-computed tomography. Following behavioral tests, mice were sacrificed and hindlimbs were dissected immediately and fixed in 4% paraformaldehyde. The structural properties of subchondral bone were evaluated using a 3D reconstruction of μCT imaging system (Brüker SkyScan 1173; Brüker microCT, Kontich, Belgium). Samples were scanned in saline with the following settings: 60 kV, […] beam intensity, 0.5 mm aluminum filter, 0.7° rotation step, 4-frame averaging, 1090 ms integration time, 1024×1024 pixel matrix, and a 10 μm isotropic voxel dimension. After scanning, noise was removed from the images by eliminating disconnected objects smaller than 4 pixels in size. Morphometric analysis was performed on 50 slices extending proximally, beginning with the first slice in which the tibia condyles had fully merged. The subchondral bone was segmented from the cortical shell manually on key slices using a contouring tool, and the contours were morphed automatically to segment the trabecular bone on all slices. The morphometry was reconstructed and analyzed. A grayscale value of 95 in a set of 8-bit slices was set as the threshold and was applied to the specimens after comparing grayscale and binarized images in both groups. After thresholding, the BV/TV (%), Tb.Th (mm), Tb.Sp (mm), and Tb.N (mm^−1) were quantified.
# [3] = test system: knee joint region (synovium); test: In vivo antibody binding pattern in the knee joint (immunofluorescence); set-up: species or system mouse
# Excerpt: Immunofluorescent staining. The isolated femur and tibia bones were fixed in 4% paraformaldehyde for 2 days prior to decalcification with 10% EDTA (pH 7.5) for 3 weeks, and then dehydrated in 30% sucrose/PBS for 3 days. Samples were embedded in the Tissue-Tek CRYO OCT compound (Thermo Fisher Scientific, Pittsburgh, PA, USA), and 12-μm-thick sections were collected on glass slides. Sections were blocked and permeabilized with 2% goat serum, 2% fish skin gelatin, 0.025% Triton X-100 and 1% bovine serum albumin in PBS. The sections were incubated overnight at 4° C. with affinity-purified antibodies against Cx43 (CT) (1:100) (Cherian P P, et al. The Journal of biological chemistry. 2003; 278(44):43146-56), for 1 hour with the appropriate secondary antibody. Slides were mounted using Vectashield mounting medium (H-1000, Vector Lab). Confocal fluorescence imaging was performed using a confocal laser scanning microscope (LSM770, Carl Zeiss, Oberkochen, Germany).
# M1 antibody binds to synovium and inhibits hemichannel opening in OA. Due to the dense nature of cartilage and large size of antibodies, a widely held perception is that antibodies are unable to penetrate the cartilage matrix. To determine the antibody binding pattern in the knee joint region, M1 antibody (25 mg/kg) with human IgG epitope or saline was intraperitoneally (i.p.) injected at 30 mins after DMM surgery. As shown in the diagram (FIG. 8A), mice were euthanized and perfused before isolation of hindlimbs at one or two weeks after injection. Frozen tissue sections were prepared and immuno-labeled with Alexa Fluor 594-conjugated anti-human IgG secondary antibody. […] The synovium of joints comprises macrophage-like type A cells, which are responsible for phagocytosing synovial fluid, and fibroblast-like type B cells, which produce hyaluronic acid and mucin to nourish and mechanically protect, respectively, the underlying articular cartilage (Donahue H J, et al. Nature reviews Rheumatology. 2017; 14(1):42-51). […]
# [4] = test system: post-traumatic OA model (DMM) in male C57BL/6 mice; test: DMM OA model: open field test; type: in vivo, mouse
# Experimental: as §1
# Spontaneous locomotor activity was analyzed using the open-field test. Mice were placed into the center of a chamber 25×25×25 cm to allow free exploration. The experiments were performed for 10 minutes. Total travel distance, and immobility time were measured by computerized analysis. Mice behavior was recorded, and videos were analyzed by use of ANY-maze behavior tracking software (Stoelting Co., Wood Dale, IL, USA).
# [5] = target: T1, Cx43 hemichannels (HCs) in primary mouse chondrocytes (Mus musculus, UniProt P23242); test: Ethidium bromide dye uptake assay in primary mouse chondrocytes; type: cell-based
# T1 construct: In primary mouse chondrocytes, ethidium bromide dye uptake assay; endogenous in cells; host or cells: primary mouse chondrocytes
# T1 sequence (P23242 whole entry): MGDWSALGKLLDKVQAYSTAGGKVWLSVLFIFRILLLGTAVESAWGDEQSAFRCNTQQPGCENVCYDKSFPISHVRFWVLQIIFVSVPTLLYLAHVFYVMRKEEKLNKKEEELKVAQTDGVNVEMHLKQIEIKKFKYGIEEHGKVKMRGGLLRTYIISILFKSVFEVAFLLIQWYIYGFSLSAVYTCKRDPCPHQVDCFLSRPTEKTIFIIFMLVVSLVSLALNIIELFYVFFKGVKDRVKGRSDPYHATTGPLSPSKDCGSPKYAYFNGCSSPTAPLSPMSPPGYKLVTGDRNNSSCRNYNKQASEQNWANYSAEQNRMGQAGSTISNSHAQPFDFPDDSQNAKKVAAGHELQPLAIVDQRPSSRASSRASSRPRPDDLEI
# [6] = 4 weeks after DMM, vs saline group
# [7] = single i.p. injection, eight weeks after DMM, vs saline
molecule,measurement,setting,value
"M1 antibody: antibody with variable heavy chain SEQ ID NO: 58 and variable light chain SEQ ID NO: 60; inhibits or blocks opening of Cx43 hemichannel (antibody, V domains shown) VH: EVQLQQPGAELVKPGASVKLSCKASGYTFTSYYMYWVKQRPGQGLEWIGGINPSNGGTNFNEKFKNKATLTVDKSSSTAYMQLSSLTSEDSAVYYCTREGNPYYTMNYWGQGTSVTVSS VL: DIVMTQSPSSLSVSAGEKVTMSCKSSQSLLNSGNQKTYLAWYQQKPGQPPKLLIYGASTRESGVPDRFTGSGSGTDFTLTISSVQAEDLAVYYCQNDHSYPFTFGSGTKLEIK",degree of synovitis (synovitis score),"[1]; DMM mice, i.p. twice at 30 minutes and four weeks post-surgery, 8 weeks after DMM",marked reduction
same,degree of synovitis (synovitis score),"[1]; delayed treatment: i.p. at 10, 25 and 40 days after DMM surgery, eight weeks after DMM",significant reduction
same,bone mineral density (BMD) at the tibia subchondral bone,[2],significantly decreased
same,bone volume fraction (BV/TV) at the tibia subchondral bone,[2],significantly decreased
same,trabecular separation (Tb.Sp) at the tibia subchondral bone,[2],elevated
same,trabecular thickness (Tb.Th) at the tibia subchondral bone,[2],significantly decreased
same,antibody binding site in the knee joint region,"[3]; 25 mg/kg i.p. at 30 mins after DMM surgery, anti-human IgG secondary antibody",primarily localized in the synovium region
same,antibody signal after administration,"[3]; 25 mg/kg i.p. at 30 mins after DMM surgery, one or two weeks after injection",detectable at both one and two weeks
same,time after administration at which antibody signals were detected,[3]; synovium region,more than 2 weeks
same,distance moved (open field),[4]; [6],trend of increased distance moved
same,immobility time (open field),[4]; [6],decreased immobility time
same,pain responses: reductions in distance traveled and elevations in immobility time (open field),"[4]; 8 weeks after DMM, i.p. twice",suppressed these pain responses
same,"distance traveled and immobility time in sham mice, saline vs antibody",[4]; sham mice at 8 weeks,No difference
same,distance traveled (open field),[4]; [7],significant increase
same,immobility time (open field),[4]; [7],reduction
same,IL-1β treatment induced HCs opening (ethidium bromide dye uptake),[5],blocked
